Source: US20150065556A1, “THERAPEUTIC TARGETS FOR MITOCHONDRIAL DISORDERS” (Whitehead Institute for Biomedical Research, priority 2013, published 2015)
Values belong to the substance of their own block, whether it stands above or below them.

Legend:
[1] = molecular target: ATP synthase subunit d, mitochondrial isoform a (UniProt O75947); assay: IP-MS, FLAG-OMP25TM bait (control)
[2] = molecular target: ATP synthase subunit O, mitochondrial precursor (UniProt P48047); assay: IP-MS, FLAG-OMP25TM bait (control)
[3] = molecular target: UDP-glucose: glycoprotein glucosyltransferase 1 (UniProt Q9NYU2); assay: IP-MS, FLAG-OMP25TM bait (control)
[4] = molecular target: ATP synthase subunit gamma, isoform L (UniProt P36542); assay: IP-MS, FLAG-OMP25TM bait (control)
[5] = molecular target: mitochondrial-processing peptidase subunit alpha (UniProt Q10713); assay: IP-MS, FLAG-OMP25TM bait (control)
[6] = molecular target: ATP synthase subunit alpha (UniProt P25705); assay: IP-MS, FLAG-OMP25TM bait (control)
protein zyg-11 homolog B [7] = molecular target: protein zyg-11 homolog B (UniProt Q9C0D3); assay: IP-MS, FLAG-OMP25TM bait (control)
[8] = molecular target: ATP synthase subunit beta (UniProt P06576); assay: IP-MS, FLAG-OMP25TM bait (control)
[9] = molecular target: ornithine aminotransferase (UniProt P04181); assay: IP-MS, FLAG-OMP25TM bait (control)
[10] = molecular target: 60 kDa heat shock protein, mitochondrial (UniProt P10809); assay: IP-MS, FLAG-OMP25TM bait (control)
[11] = molecular target: mitochondrial-processing peptidase subunit beta (UniProt O75439); assay: IP-MS, FLAG-OMP25TM bait (control)
[12] = molecular target: ATP synthase subunit g, mitochondrial (UniProt O75964); assay: IP-MS, FLAG-OMP25TM bait (control)
[13] = molecular target: ATP synthase subunit b, mitochondrial precursor (UniProt P24539); assay: IP-MS, FLAG-OMP25TM bait (control)
[14] = molecular target: ATPase inhibitor, mitochondria; isoform 1 (UniProt Q9UII2); assay: IP-MS, FLAG-OMP25TM bait (control)
[15] = molecular target: ATP synthase subunit d, mitochondrial isoform a (UniProt O75947); assay: IP-MS with Flag tagged ATPIF1 as bait, no antimycin
[16] = molecular target: ATP synthase subunit O, mitochondrial precursor (UniProt P48047); assay: as above
[17] = molecular target: UDP-glucose: glycoprotein glucosyltransferase 1 (UniProt Q9NYU2); assay: as above
[18] = molecular target: ATP synthase subunit gamma, isoform L (UniProt P36542); assay: as above
[19] = molecular target: mitochondrial-processing peptidase subunit alpha (UniProt Q10713); assay: as above
[20] = molecular target: ATP synthase subunit alpha (UniProt P25705); assay: as above
protein zyg-11 homolog B [21] = molecular target: protein zyg-11 homolog B (UniProt Q9C0D3); assay: as above
[22] = molecular target: ATP synthase subunit beta (UniProt P06576); assay: as above
[23] = molecular target: ornithine aminotransferase (UniProt P04181); assay: as above
[24] = molecular target: 60 kDa heat shock protein, mitochondrial (UniProt P10809); assay: as above
[25] = molecular target: mitochondrial-processing peptidase subunit beta (UniProt O75439); assay: as above
[26] = molecular target: ATP synthase subunit g, mitochondrial (UniProt O75964); assay: as above
[27] = molecular target: ATP synthase subunit b, mitochondrial precursor (UniProt P24539); assay: as above
[28] = molecular target: ATPase inhibitor, mitochondria; isoform 1 (UniProt Q9UII2); assay: as above

Sequence of 60 kDa heat shock protein, mitochondrial (P10809 27-573 limits assumed): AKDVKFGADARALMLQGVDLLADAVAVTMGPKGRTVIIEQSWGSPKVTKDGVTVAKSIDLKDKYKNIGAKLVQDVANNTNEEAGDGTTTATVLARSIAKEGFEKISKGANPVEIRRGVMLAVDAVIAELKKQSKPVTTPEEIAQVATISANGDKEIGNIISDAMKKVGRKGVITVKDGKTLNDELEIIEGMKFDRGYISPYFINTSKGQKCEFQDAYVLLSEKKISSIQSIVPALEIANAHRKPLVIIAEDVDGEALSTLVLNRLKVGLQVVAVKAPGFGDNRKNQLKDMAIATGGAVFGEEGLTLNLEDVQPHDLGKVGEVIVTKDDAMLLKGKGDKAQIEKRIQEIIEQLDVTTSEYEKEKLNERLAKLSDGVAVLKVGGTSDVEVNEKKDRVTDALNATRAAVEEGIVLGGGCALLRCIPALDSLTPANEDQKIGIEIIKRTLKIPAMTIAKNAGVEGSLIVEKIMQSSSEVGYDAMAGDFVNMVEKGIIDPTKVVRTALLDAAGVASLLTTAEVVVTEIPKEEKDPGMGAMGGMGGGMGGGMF
Sequence of ATP synthase subunit gamma, isoform L (P36542 26-298): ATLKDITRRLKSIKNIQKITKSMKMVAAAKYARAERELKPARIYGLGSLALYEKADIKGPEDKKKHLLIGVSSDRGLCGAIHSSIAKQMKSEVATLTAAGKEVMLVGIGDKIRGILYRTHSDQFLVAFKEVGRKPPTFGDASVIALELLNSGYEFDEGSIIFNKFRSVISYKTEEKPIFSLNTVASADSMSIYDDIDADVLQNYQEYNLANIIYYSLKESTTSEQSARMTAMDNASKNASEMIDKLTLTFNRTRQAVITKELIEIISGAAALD
Sequence of ATP synthase subunit O, mitochondrial precursor (P48047 24-213 limits assumed): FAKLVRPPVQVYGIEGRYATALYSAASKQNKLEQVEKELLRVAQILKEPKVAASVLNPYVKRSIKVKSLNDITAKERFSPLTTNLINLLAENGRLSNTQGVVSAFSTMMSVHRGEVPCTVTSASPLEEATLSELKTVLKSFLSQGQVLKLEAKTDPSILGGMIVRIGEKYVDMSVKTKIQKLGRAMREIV
Sequence of ornithine aminotransferase (P04181 26-439 limits assumed): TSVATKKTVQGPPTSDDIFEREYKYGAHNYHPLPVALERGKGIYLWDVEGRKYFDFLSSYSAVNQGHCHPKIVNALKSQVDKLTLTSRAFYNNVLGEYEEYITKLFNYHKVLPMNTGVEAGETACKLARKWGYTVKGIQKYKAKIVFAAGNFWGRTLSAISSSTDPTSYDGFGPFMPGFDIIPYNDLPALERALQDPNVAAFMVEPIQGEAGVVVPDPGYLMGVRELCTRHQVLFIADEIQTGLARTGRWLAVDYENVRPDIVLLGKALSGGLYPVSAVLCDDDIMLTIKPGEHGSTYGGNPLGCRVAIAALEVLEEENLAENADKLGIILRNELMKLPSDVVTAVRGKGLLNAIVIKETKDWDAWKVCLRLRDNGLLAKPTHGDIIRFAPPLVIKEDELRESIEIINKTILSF
Sequence of mitochondrial-processing peptidase subunit alpha (Q10713 34-525 limits assumed): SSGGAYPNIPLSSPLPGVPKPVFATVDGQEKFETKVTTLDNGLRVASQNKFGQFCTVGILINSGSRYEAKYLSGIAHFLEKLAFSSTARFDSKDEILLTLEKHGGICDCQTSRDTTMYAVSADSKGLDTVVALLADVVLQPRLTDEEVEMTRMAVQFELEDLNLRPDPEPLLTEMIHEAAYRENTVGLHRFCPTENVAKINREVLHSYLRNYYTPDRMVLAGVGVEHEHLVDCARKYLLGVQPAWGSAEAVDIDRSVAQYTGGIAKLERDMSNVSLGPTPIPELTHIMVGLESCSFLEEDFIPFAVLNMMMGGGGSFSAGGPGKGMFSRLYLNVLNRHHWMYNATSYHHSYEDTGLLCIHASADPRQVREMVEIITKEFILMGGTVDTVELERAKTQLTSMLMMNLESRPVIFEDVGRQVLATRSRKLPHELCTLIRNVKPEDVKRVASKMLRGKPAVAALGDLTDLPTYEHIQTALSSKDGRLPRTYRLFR
Sequence of ATPase inhibitor, mitochondria; isoform 1 (Q9UII2 26-106): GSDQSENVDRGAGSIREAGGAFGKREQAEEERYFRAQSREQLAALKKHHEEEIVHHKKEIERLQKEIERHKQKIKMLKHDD
Sequence of ATP synthase subunit b, mitochondrial precursor (P24539 43-256 limits assumed): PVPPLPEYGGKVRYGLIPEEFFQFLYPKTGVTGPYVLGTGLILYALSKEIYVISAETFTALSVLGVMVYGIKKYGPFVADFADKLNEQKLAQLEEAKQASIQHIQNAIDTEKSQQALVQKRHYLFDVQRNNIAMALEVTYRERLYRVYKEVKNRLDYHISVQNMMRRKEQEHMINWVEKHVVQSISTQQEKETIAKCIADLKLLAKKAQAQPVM
Sequence of ATP synthase subunit d, mitochondrial isoform a (O75947 2-161): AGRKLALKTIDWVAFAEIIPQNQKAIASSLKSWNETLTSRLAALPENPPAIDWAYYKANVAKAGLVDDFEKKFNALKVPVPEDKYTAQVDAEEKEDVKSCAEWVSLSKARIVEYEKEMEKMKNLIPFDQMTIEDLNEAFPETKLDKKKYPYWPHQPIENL
Sequence of ATP synthase subunit alpha (P25705 44-553): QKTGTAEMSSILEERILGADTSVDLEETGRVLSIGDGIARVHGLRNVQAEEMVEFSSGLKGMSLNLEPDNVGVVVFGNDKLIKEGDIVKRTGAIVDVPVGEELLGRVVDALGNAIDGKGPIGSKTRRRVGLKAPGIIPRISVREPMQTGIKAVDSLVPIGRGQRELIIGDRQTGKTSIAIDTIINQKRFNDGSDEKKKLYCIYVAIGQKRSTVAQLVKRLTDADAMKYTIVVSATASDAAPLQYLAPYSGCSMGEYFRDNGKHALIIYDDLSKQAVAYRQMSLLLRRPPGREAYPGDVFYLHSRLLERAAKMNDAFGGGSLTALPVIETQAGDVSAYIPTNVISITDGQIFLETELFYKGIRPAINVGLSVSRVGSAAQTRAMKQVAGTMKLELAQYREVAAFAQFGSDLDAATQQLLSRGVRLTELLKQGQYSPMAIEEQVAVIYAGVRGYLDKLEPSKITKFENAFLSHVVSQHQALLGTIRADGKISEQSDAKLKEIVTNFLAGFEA
Sequence of mitochondrial-processing peptidase subunit beta (O75439 44-489 limits assumed): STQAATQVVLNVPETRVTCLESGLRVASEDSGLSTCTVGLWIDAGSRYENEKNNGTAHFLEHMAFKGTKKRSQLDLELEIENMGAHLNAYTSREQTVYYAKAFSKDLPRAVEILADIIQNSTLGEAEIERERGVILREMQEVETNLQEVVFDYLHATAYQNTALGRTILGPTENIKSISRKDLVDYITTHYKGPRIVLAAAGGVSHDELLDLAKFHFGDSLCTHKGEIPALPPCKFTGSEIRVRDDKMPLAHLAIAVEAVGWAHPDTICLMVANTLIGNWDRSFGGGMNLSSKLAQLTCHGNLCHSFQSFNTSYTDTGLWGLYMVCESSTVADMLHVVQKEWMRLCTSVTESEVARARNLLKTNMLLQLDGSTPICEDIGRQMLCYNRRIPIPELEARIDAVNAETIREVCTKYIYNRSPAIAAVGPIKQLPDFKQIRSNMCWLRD
Sequence of protein zyg-11 homolog B (Q9C0D3 whole entry): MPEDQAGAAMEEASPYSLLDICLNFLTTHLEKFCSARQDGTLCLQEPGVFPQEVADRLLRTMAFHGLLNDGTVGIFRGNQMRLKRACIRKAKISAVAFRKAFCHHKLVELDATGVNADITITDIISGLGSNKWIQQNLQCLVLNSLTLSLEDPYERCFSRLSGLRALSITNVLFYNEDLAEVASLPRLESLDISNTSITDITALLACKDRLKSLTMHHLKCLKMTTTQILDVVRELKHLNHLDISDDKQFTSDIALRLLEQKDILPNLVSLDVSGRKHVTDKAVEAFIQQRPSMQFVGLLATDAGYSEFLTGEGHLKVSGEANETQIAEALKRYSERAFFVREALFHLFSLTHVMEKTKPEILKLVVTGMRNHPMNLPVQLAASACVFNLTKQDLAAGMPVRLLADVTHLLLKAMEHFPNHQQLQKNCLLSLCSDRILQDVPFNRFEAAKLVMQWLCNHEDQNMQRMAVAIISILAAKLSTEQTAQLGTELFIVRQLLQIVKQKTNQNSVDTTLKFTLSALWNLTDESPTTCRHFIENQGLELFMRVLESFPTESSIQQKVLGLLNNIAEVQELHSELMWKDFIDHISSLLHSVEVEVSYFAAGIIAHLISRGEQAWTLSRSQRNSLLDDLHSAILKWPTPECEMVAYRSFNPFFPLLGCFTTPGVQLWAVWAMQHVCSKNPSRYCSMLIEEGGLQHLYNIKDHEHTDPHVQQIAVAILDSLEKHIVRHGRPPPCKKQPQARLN
Sequence of ATP synthase subunit beta (P06576 48-529): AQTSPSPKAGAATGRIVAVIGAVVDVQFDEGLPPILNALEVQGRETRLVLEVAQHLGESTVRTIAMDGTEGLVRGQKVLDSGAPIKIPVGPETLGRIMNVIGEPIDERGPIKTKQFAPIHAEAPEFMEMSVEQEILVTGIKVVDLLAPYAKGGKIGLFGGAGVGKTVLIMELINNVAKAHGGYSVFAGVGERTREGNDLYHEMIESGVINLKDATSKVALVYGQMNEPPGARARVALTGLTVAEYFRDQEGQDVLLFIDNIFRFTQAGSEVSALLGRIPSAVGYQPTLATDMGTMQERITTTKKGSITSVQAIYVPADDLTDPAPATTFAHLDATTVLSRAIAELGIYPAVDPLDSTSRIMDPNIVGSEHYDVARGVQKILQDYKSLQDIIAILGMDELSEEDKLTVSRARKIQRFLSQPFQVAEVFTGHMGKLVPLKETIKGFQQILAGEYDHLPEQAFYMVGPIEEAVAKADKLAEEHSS
Sequence of ATP synthase subunit g, mitochondrial (O75964 2-103): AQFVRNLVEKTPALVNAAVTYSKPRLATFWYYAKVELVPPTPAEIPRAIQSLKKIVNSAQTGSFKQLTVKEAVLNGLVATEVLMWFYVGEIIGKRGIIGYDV

IP-MS count (kind of count not given) [1]: 1 | IP-MS count (kind of count not given) [2]: 3 | IP-MS count (kind of count not given) [3]: 5 | IP-MS count (kind of count not given) [4]: 2 | IP-MS count (kind of count not given) [5]: 0 | IP-MS count (kind of count not given) [6]: 11 | IP-MS count (kind of count not given) (protein zyg-11 homolog B [7]): 0 | IP-MS count (kind of count not given) [8]: 7 | IP-MS count (kind of count not given) [9]: 1 | IP-MS count (kind of count not given) [10]: 4 | IP-MS count (kind of count not given) [11]: 0 | IP-MS count (kind of count not given) [12]: 0 | IP-MS count (kind of count not given) [13]: 3 | IP-MS count (kind of count not given) [14]: 3
Substance: FLAG-OMP25TM

IP-MS count (kind of count not given) [15]: 26 | IP-MS count (kind of count not given) [16]: 47 | IP-MS count (kind of count not given) [17]: 15 | IP-MS count (kind of count not given) [18]: 59 | IP-MS count (kind of count not given) [19]: 14 | IP-MS count (kind of count not given) [20]: 381 | IP-MS count (kind of count not given) (protein zyg-11 homolog B [21]): 19 | IP-MS count (kind of count not given) [22]: 375 | IP-MS count (kind of count not given) [23]: 16 | IP-MS count (kind of count not given) [24]: 28 | IP-MS count (kind of count not given) [25]: 17 | IP-MS count (kind of count not given) [26]: 14 | IP-MS count (kind of count not given) [27]: 44 | IP-MS count (kind of count not given) [28]: 175
Substance: Flag tagged ATPIF1 (from UniProt Q9UII2 26-106)
